Each block holds one binder with its values, some of them ahead of it.
What was measured:
[1] = target: Rab35BD (MiniBAR225-553), recombinant (human, UniProt O15063 225-553); test: ITC
SEC-MALS = target: the molecule itself; test: SEC-MALS
Rac1Q61L, recombinant = Rac1Q61L, recombinant (human, UniProt P63000 1-192, Q61L); test: ITC
SAXS = target: the molecule itself; test: SAXS

Kd [1]: ~2000 nM
B1: Rab35-GPPNHP, recombinant (natural protein)
chain: not shown

B2: Rac1BD (MiniBAR70-208), recombinant (domain or fragment)
chain: not shown
stoichiometry N (SEC-MALS): 2

Kd (Rac1Q61L, recombinant): ~200 nM
B3: Rac1BD-Rab35BD (MiniBAR70-553), recombinant (domain or fragment)
chain: not shown
stoichiometry N (SAXS): 2

From doi:10.1101/2023.07.24.550339 (bioRxiv, 2023)
